The values below come from patent US20110201077.

For the data set, the system named is recombinant streptokinase produced with the pET21b expression construct (double-mutant, plasmin-resistant, polyhistidine-tagged).

As to recombinant plasminogen, the “conversion of recombinant plasminogen to recombinant plasmin, time course on reducing SDS-PAGE, 100:1 mole ratio plasminogen:streptokinase” value is “At t=18 hours into the reaction, nearly all of the recombinant plasminogen had been converted to recombinant plasmin”.

With recombinant plasmin, the “streptokinase proteolysis followed by Western blot, 1:1 mole ratio (data not shown)” value is reported as “a very stable streptokinase fragment was generated, even at t=18 hours into the reaction”.
